Data on 21 molecules can be found in patent publication US20210230599, “STEM-LOOP COMPOSITIONS AND METHODS FOR INHIBITING INTERLEUKIN-8” (VITRISA THERAPEUTICS, INC., published 2021).

Series [1] has as its target T1, Interleukin-8 (IL8, CXCL8), C-terminal His-tagged (Homo sapiens, UniProt P10145 SEQ:1-72). Kind of series: competition; competition TR-FRET; S2 shortened. To be noted: tags: C-terminal 6xHis (Sino Biological). Here is the method:
(§1) To better understand the sequence requirements and to confirm the stem structures of members of the Aptamer 3 family as determined from sequence covariation analysis from both the primary and secondary (degenerate) selections, a series of variants which included mutations and deletions to the predicted stems were synthesized and screened (Table 24). Activity of each of these variants were tested using a time resolved competition TR-FRET assay in which the labeled parent Aptamer 3 was competed with increasing concentrations of unlabeled variants for binding to IL8 (FIG. 14). Briefly, 2-fold dilutions of thermally equilibrated aptamers were made in TR-FRET Buffer (50 mM MOPS, pH 7.4, 125 mM NaCl, 5 mM KCl, 50 μM CHAPS, 0.1 mg/mL BSA, 1 mM CaCl₂, and 1 mM MgCl₂). 5 μL of aptamer or control solution was added to 5 μl mix of 10 nM C-terminal His-tagged-IL8, 60 nM ALEXA FLUOR® 647-labeled Aptamer, and 5 nM anti-His-Eu (Perkin Elmer) in a black wall low volume 384 well plate (Greiner). For control, 5 μl of 1000-fold excess of unlabeled parent aptamer or 5 μl TR-FRET buffer alone was added to the mix of ALEXA FLUOR® 647-labeled aptamer, His-IL8, and anti-His-Eu. The plate was covered with a plate seal and subsequently incubated in the dark for 1 hour at room temperature. The plate was read on a Biotek CYTATION™ 5 plate reader. […]

Series [2] addresses T1, Interleukin-8 (IL8, CXCL8), C-terminal …. Nature of the series: TR-FRET; bead flow 13 nM. To be noted: tags: C-terminal 6xHis (Sino Biological); label: Alexa Fluor 647. Here is the method: (§2) Aptamers were synthesized and labeled with ALEXA FLUOR® 647, and binding to IL8 was quantified by Time-Resolved Fluorescence Resonance Energy Transfer (TR-FRET). Briefly, 2-fold dilutions of thermally equilibrated aptamers were made in TR-FRET Buffer (50 mM MOPS, pH 7.4, 125 mM NaCl, 5 mM KCl, 50 μM CHAPS, 0.1 mg/mL BSA, 1 mM CaCl₂ and 1 mM MgCl₂). […] of aptamer or control solution was added to 10 μL of 15 nM C-His-tagged-IL8 (Sino Biological) in a black wall half-area plate (Corning). In the same plate, 10 μl of aptamer solution was added to 10 μl of TR-FRET buffer alone to use for background subtraction. 10 μl of 15 nM anti-His-Eu (Perkin Elmer) was added to each well, the plate was covered with a plate seal and subsequently incubated in the dark for 1 hour at room temperature. The plate was read on a Biotek CYTATION™ 5 plate reader. Samples were excited at 330 nm and fluorescent values were collected at 665 nm. […] Apparent Kd values obtained for the fits are calculated as the concentration of half-maximal binding and shown in Table 10, and fit curves as FIG. 6. […] It is also possible that differences may arise due to TR-FRET being a homogenous solution binding assay, while bead binding has immobilized ligand and is non-homogenous, so bound aptamers may dissociate during analysis resulting in higher calculated Kd values.
For orientation: Time-resolved FRET reads energy transfer from a long-lived donor to a nearby acceptor.

For series [3] the target is unchanged. Nature of the series: cell_activity; neutrophil migration, 3 nM IL8, protein limited. To be noted: tags: C-terminal His (Sino Biological); stem-loop. Here is the method: (§3) Freshly isolated primary human neutrophil migration stimulated by IL8 was measured using a transwell assay. Neutrophils were isolated from fresh whole human blood using Polymorphprep™ (AXIS Shield) and then were re-suspended in assay buffer (RPMI+0.1% Human Serum Albumin) at 10\hat{ }6 cells/mL. 5 μm Transwell inserts (Corning) were activated with […] in the plate and 100 µL of assay buffer in the transwell at 37° C. 3 nM IL8 and aptamers or controls were incubated for 1 hour, then 200 µL of the aptamer/IL8 mix was added to each well and 100 μL of neutrophils was added to the transwell. Aptamer inhibition was tested at two concentrations: 10 nM and 100 nM. After 45 minutes at 37° C., 100 μL from each well was transferred to a white 96-well plate with 50 μL of lysis buffer. The number of cells that migrated from the transwell to the well was quantified by ATPLITE® Luminescence Assay System (Perkin Elmer). In Table 13, values are normalized to 3 nM IL8 treatment and average between replicates with standard deviation. 3 nM IL8 activity inhibited by at least 50% at 10 nM aptamer concentration is consistent with aptamers having IC₅₀ values of 10 nM or better, as observed for Aptamer 3 and Aptamer 8.
The neutrophil migration assays described in Examples 6 and 18 were used to confirm the activity of Aptamers 8, 212, and 248. Assays were performed as described in those examples.

Series [4] shares this target. Nature of the series: TR-FRET. To be noted: tags: C-terminal 6xHis (Sino Biological); label: Alexa Fluor 647. Here is the method: as §2
Series [5] shares this target. Nature of the series: competition; competition TR-FRET; U20C. To be noted: tags: C-terminal 6xHis (Sino Biological).
The target is the same in series [6]. Nature of the series: inhibition; inhibition of IL8 binding to CXCR1 cells, protein limited; neutrophil migration 3 nM. To be noted: tags: C-terminal His (Sino Biological); stem-loop. Here is the method: CXCR1 overexpressing cells were used to confirm that aptamers could block IL8 binding to its cognate receptor, CXCR1, in a functional setting. Briefly, CXCR1-overexpressing cells were plated in a 96 well plate and seeded overnight. Serially diluted aptamers and 5 nM IL8 were mixed in cell culture media and applied to cells for 2 hours at 37° C. Media was aspirated, and cells were washed 3× with PBS for 5 minutes. Cells were lysed in Ultra HiBlock Buffer (Perkin Elmer) with gentle agitation. IL8 levels were determined using Ultra TR-FRET (Perkin Elmer).

For series [7] the target is unchanged. Nature of the series: cell_activity; neutrophil migration, 3 nM IL8, protein limited. To be noted: tags: C-terminal His (Sino Biological); stem-loop. Here is the method:
as §3
The neutrophil migration assay described in Example 6 was used to further characterize optimized variants of Aptamer 3. […]
This is another data set of the same source.

For series [8] the target is unchanged. Kind of series: TR-FRET; bead flow 11 nM. To be noted: tags: C-terminal 6xHis (Sino Biological); label: Alexa Fluor 647. Here is the method:
as §2

Series [9] has the same target. Kind of series: competition; competition TR-FRET. To be noted: tags: C-terminal 6xHis (Sino Biological). Here is the method:
as §1

The target is the same in series [10]. Kind of series: TR-FRET; bead flow 21 nM. To be noted: tags: C-terminal 6xHis (Sino Biological); label: Alexa Fluor 647. Here is the method: as §2
Series [11] has the same target. Kind of series: competition; competition TR-FRET; U20A. To be noted: tags: C-terminal 6xHis (Sino Biological). Here is the method: as §1
Series [12] has the same target. Nature of the series: competition; competition TR-FRET. To be noted: tags: C-terminal His (Sino Biological); stem-loop.
The target is the same in series [13]. Nature of the series: TR-FRET; bead flow 10 nM. To be noted: tags: C-terminal 6xHis (Sino Biological); label: Alexa Fluor 647. Here is the method:
as §2

One may read the Kd as the free concentration of one partner at which half of the binding sites on the other are occupied at equilibrium, for simple one-to-one binding. The low end stands for higher affinity, the high end for lower affinity. Broadly, the IC50 is the point on the concentration scale where inhibition reaches its midpoint. Low readings indicate inhibition by little substance, high ones a need for much substance.

Bounds are passed on as bounds.

GCGACGCAGAUUACGGGUAGAGUGGCGCGC (ssRNA, 2'-F G, 2'-OMe A/C/U, 5' C6NH2, 3' idT) [Aptamer 45] displayed a binding signal in series [1] of more than 10 fold worse than Aptamer 3.

For UUAGCCCUGCCAUUGGGGCAUACUUUGGCCGCACU (ssRNA, 2'-F G, 2'-OMe A/C/U, 5' C6NH2, 3' idT) [Aptamer 23], in series [2], binding was put at a Kd of 12 nM.

B1: Aptamer 248 (ssRNA)
RNA: GCGGUGGGAAAUGUGAGAUGGGUUGCCGC
modifications: 2'-F G except 2'-OMe G at X (XCXXU-GGGA-AAUGU-GAGAU-GGGUU-XCCXC); 2'-OMe A,C,U; 5' C6NH2; 3' idT
In series [3], B1 came in with a half-inhibitory concentration (IC50) of 2 nM.

UGGAUGACAUUCGGGGGCACCAAUCAUCGUCUGCU (ssRNA, 2'-F G, 2'-OMe A/C/U, 5' C6NH2, 3' idT) [Aptamer 18] registered a Kd in series [4] of 13 nM.

For the molecule CGGUGGGAAAUGUGAGACGGGUUGCCG (ssRNA, 2'-F G, 2'-OMe A/C/U, 5' C6NH2, 3' idT) [Aptamer 54], the binding result in series [5] is given as “binds”.

Molecule UACGGUGGGAAAUGUGAGAUGGGUUGCCGUAUUUU (ssRNA, 2'-F G; 2'-OMe A,C,U; 5' C6NH2; 3' idT) [Aptamer 8] yielded an IC50 in series [3] of 2 nM.

In turn, UGAUGACGGUAGAUUAUGGGCAGUGUGACCGCAUCU (ssRNA, 2'-F G; 2'-OMe A,C,U; 5' C6NH2; 3' idT) [Aptamer 99] came in with a concentration for half-maximal inhibition (IC50) in [6] of 4 nM.

In [7], UGAUGACGGUAGAUUUCGGGUAGUGUGACCGCAUCU (ssRNA, 2'-F G; 2'-OMe A,C,U; 5' C6NH2; 3' idT) [Aptamer 94] had an IC50 of 3 nM.

In the case of UAGCGGCCGAAGUUAGCGUACGUUUGCCGGGUACGU (ssRNA, 2'-F G, 2'-OMe A/C/U, 5' C6NH2, 3' idT) [Aptamer 2], the Kd in [8] came to 9 nM.

Turning to GGCGACGGUAGAUUUUGGGUAGUGUGACCGCGCC (ssRNA, 2'-F G, 2'-OMe A/C/U, 5' C6NH2, 3' idT) [Aptamer 193], in series [9], the binding result is “binds”.

B2: Aptamer 269 (ssRNA)
RNA: GGCGACGGUAGAUUAUGGGCAGUGUGACCGCGCC
modifications: 2'-F G except 2'-OMe G at X (XXCX-A-CXXU-AX-AU-UAUGGGCAGU-GU-G-ACCX-CXCC); 2'-OMe A,C,U; 5' C6NH2; 3' idT
In turn, B2 registered an IC50 in series [6] of 3 nM.

With GGCGACGGUAGAUUUCGGGUAGUGUGACCGCGCC (ssRNA, 2'-F G; 2'-OMe A,C,U; 5' C6NH2; 3' idT) [Aptamer 143], the midpoint of inhibition in series [7], the IC50, lay at 2 nM.

As to GGCGACGGUAGAUUUUGGGCAGUGUGACCGCGCC (ssRNA, 2'-F G, 2'-OMe A/C/U, 5' C6NH2, 3' idT) [Aptamer 197], the binding result in [9] was “binds”.

On to UCGCUUGUACCUCUGAGAUGUGAGACUAAUGUAGGU (ssRNA, 2'-F G, 2'-OMe A/C/U, 5' C6NH2, 3' idT) [Aptamer 13], for which the Kd in series [10] was determined as 7 nM.

Turning to CGGUGGGAAAUGUGAGAAGGGUUGCCG (ssRNA, 2'-F G, 2'-OMe A/C/U, 5' C6NH2, 3' idT) [Aptamer 59], the binding result in series [11] is “binds”.

B3: Aptamer 272 (ssRNA)
RNA: GCGACGGUAGAUUAUGGGCAGUGUGACCGCGC
modifications: 2'-F G except 2'-OMe G at X (XCX-A-CXXU-AX-AU-UAUGGGCAXU-GU-X-ACCX-CXC); 2'-OMe A,C,U; 5' C6NH2; 3' idT
For B3, in series [12], the binding signal was > 10 fold worse than Aptamer 147.

B4: Aptamer 278 (ssRNA)
RNA: GCGACGGUAGAUUUCGGGUAGUGUGACCGCGC
modifications: 2'-F G except 2'-OMe G at X (XCX-A-CXXU-AX-AU-UUCGGGUAXU-GU-X-ACCX-CXC); 2'-OMe A,C,U; 5' C6NH2; 3' idT
Take B4: the binding signal in series [12] was > 10 fold worse than Aptamer 147.

In series [1], GCGACGUAGAUUACGGGUAGAGUGACGCGC (ssRNA, 2'-F G, 2'-OMe A/C/U, 5' C6NH2, 3' idT) [Aptamer 44] returned a binding signal of more than 10 fold worse than Aptamer 3.

Turning to UGCGGCCUCCGUUGACUGUUGUAAUGCCGGGACAGU (ssRNA, 2'-F G, 2'-OMe A/C/U, 5' C6NH2, 3' idT) [Aptamer 14], in series [2], the Kd was 6 nM.

As to UUAAGCGCUGAGACGAGAGAUUAAUGCCGCUUGCCU (ssRNA, 2'-F G, 2'-OMe A/C/U, 5' C6NH2, 3' idT) [Aptamer 21], the Kd in series [13] is 7 nM.

On to UCAGUUGCGGCCCCUGAUACCGAUUUGCCGCCCGGU (ssRNA, 2'-F G, 2'-OMe A/C/U, 5' C6NH2, 3' idT) [Aptamer 15], for which the dissociation constant (Kd) in series [4] was 22 nM.
